{"source": "paper PMC8983682", "about": "(Nature Communications, 2022)", "molecular_target": "full-length N1-CA09-WT, membrane-anchored, C-terminal myc tag (Influenza A virus A/California/07/2009 …, UniProt C7FH46, strain)", "test": "flow cytometry on cells", "conditions": "one partner purified", "data": [{"binder": "CD6 IgG (antibody, V domains shown, copies: 2 + 2) VH: QVKLQESGGGLVQPKGSLKLSCAASGFTFNTYAMNWVRQAPGKGLEWVARIRSKSNNYATFYADSVKDRFTISRDDSQSMLYLQMHNLKTDDTAMYYCVRPSIYYYASGYLDVWGAGTTVTVSS VL: QIVLSQSPAILSASPGEKVTMTCRTSSSVSYMHWYQQKPGSSPKPWIYATSNLASGVPFRFSGSGSGTSYSLTISRVEAEDAATYYCQQWNSNPPTFGGGTKLEIK", "values": [{"measurement": "binding result", "result": "binds"}]}]}
